Test results taken from paper PMC6718376.

Tests used:
[1] = molecular target: Pierce recombinant protein A/G; experiment: plasmonic light-scattering biosensor array (localised gold nanoparticle plasmon); Fc assay: protein A/G immobilised on array spots by EDC/NHS coupling, BSA reference spots and BSA blocking; antibody in PBS; NISTmAb kinetics from a global Langmuir fit to low concentrations with ϑm floating; all antibody samples at 100 nM for 300 s, 500 s wash
[2] = molecular target: respiratory syncytial virus protein F (respiratory syncytial virus) (UniProt P03420); experiment: plasmonic light-scattering biosensor array (localised gold nanoparticle plasmon); Fab assay: RSVF immobilised on array spots by EDC/NHS coupling, BSA reference spots and BSA blocking; NISTmAb injected at 1.56, 3.23 and 6.25 nM in PBS; global fit to the Langmuir 1:1 model
[3] = molecular target: NISTmAb (NIST RM 8671), recombinant humanized IgG1κ specific to respiratory syncytial virus protein F (human (humanized IgG1κ)); experiment: plasmonic light-scattering biosensor array (localised gold nanoparticle plasmon); antigen assay: antibody (100 nM) first captured by its Fc on the protein A/G surface, then antigen at 100 nM in PBS injected for 300 s; stoichiometry from ϑm antigen/ϑm Fc normalised for the masses of antigen and intact IgG
Sequence of NISTmAb (NIST RM 8671), recombinant humanized IgG1κ specific to respiratory syncytial virus protein F (human (humanized IgG1κ)) (heavy, as listed by the source, chain 1 of 2): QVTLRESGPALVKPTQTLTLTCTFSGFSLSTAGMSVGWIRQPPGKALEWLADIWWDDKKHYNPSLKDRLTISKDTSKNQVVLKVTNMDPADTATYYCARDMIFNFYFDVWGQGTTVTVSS
Sequence of NISTmAb (NIST RM 8671), recombinant humanized IgG1κ specific to respiratory syncytial virus protein F (human (humanized IgG1κ)) (light, as listed by the source, chain 2 of 2): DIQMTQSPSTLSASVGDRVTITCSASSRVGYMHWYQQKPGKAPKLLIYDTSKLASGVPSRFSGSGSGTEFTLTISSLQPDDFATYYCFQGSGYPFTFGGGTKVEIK

Substance	koff [1]	kon [1]	Kd [2]	koff [2]	kon [2]	stoichiometry N (antigens per antibody) [3]
NISTmAb (NIST RM 8671), recombinant humanized IgG1κ specific to respiratory syncytial virus protein F (antibody)	2e-05 s⁻¹	59000 M⁻¹ s⁻¹	2.7 nM	0.00024 s⁻¹	89000 M⁻¹ s⁻¹	
respiratory syncytial virus protein F (from UniProt P03420 26-574) (natural protein)						1.31
